Source: a protein production outcome set (Wang et al. 2014)

Assay: label from the status in PepcDB records

Sequence	protein production
MIEGKTLVVNPFIGGSAKNITDEQYISILKKIKEKMPDLNIIITSYTTDEERTEKLCKDIGKDKIFAFSNGASILNTASIIDRADVYFGASTGPTHIAGALGKKIVAIYPHKKTQSPTRWGVLGNSNVRYIIPDENNPNEDYKLEHHHHHH	failed
MIEHIIDIIIVLLAKLGYAGTFFGMLFESACIPIPSEIVLPFGGYLSSSSAPQGHTLNLVLVIISATLGGTVGSILAYTIGAKGGRILVYKYASKLHLSKEKIEKSEAVFDKYGDKIIFLSRLLPIIRTFISLPAGIAKMDFTKFTIYTLVGSAIWSTLLVYAGFVMGKNWESIRSYFHIADYLVAGAIILFIVYRIIVYIKKKTKK	failed
MIEKIIDLSVKNKLLTTLVTLLIFLASLWAIKSVRLDALPDLSPAQVVVQITYPNQSPKIVQEQVTYPLVSTFMSIANIDTVRGISSYESGLIYIIFKDGVNLYWARDRVLEQLNRVSNLPKDAKVEIGSDSTSIGWAYQYALSSDSKNLSDLKVLQDFYYRYALLGVDGVSEVASVGGFVKDYEVTLQNDSLIRYNLSLEQVANAIKNSNNDTGGGVILENGFEKIIRSHGYIQSLKDLEEIVVKKEGAIPLKIKDIASVRLTPKPRRGAANLNGDKEVVGGIVMVRYHADTYKVLKAIKEKIATLQASNPDVKITSVYDRSELIEKGIDNLIHTLIEESVIVLVIIAIFLLHFRSALVVIITLPLSVCISFLLMRYFNIEASIMSLGGIAIAIGAMVDAAIVMVENAHKHLQHIDVKDNAQRVNGIIEGVKHVGGAIFFALMIIVVSFLPIFALTGQEEKLFAPLAYTKTFAMLVGALLSITMVPILMVWLIKGRILEESKNPINAFFMKIYGVSLNVVLKFRYAFLIASVLGLGGLYVAYKKLNWEFIPQINEGVVMYMPVTINGVSIDTALEYLKKSNSAIKRLDFVKQVFGKVGRANTSTDAAGLSMIETYIELKPQNEWKEKLSYKEVRDKLEKTLQLKGLTNSWTYPIRGRTDMLLTGIRTPLGIKLYGNDTDKLQELAILMEQQLKTLKESLSVFAERSNNGYYITLDLNDENLARYGINKKAVLDAIKFALGGATLTTMIKGVENYPISLRLEDTERNTIEKLKNLYIKTAYNYMPLRELARIYYDNSPAVLKSEKGLNVNFIYIVPQNGISSDAYRQLAQKALEKIQLPNGYYYEFSGESQYLEEAFKTLQYIVPVSVFIIFILIVFALKNLTNSLLCFFTLPFAFLGGLIFMNLMGFNMSVAALVGFLALLGVASETAIVMIIYLEDAFQKFIKTPLKEQNSTTLKEAIMHGAVLRVRPKLMTFFSILASLIPIMYSHGTGSEIMKSIAAPMLGGMISSVVLTLFIIPTAYFVIKNAGIKSNQT	failed
MIEKKKNRSKLKREAILAAAKKAYQDDGVQNTSMDKLASLAQVSKRTVYNHFSSKEALVMELLSDLWQNSMADIDIQFSENVSIQDQLERLLLAELNVIGAQSYLDLAKVAFGHFFYKPDELQLQVEKMAEQETALSRWLQLMMDTKKLTIEDKHKAGVQLHSLLKGSAFWPQLVGMRAVLSSEEKEQLVTETADMFLSRYLKR	not failed
MIELEVVIRTVASFGLLLIAERILGKQTISQMTIFDFIAAITLGAIAAGLAYNTSIKPHNMAISFSIFVLTIFLISFLSIKNRKLRKFFAGDPTVLIQNGKILESNMRKMRYTLDYLNQQLREKEIFNIEEVLFAILETNGQLTVLRKPQFRHVTKQDLMIAVNQEQRLPIELIMDGEIIENNLKQNRLTESWLLEELRKRDIKVKETVYAVLLGNGDIYVDQYKDHISVPMDKE	failed
MIELRNELPGGEVHAAWHLRYAGHDFFVKCDEREMLRGFTAEADQLELLSRSKTVVVPKVWAVGSDRDYSFLVMDYLSPRPLDAHNAFILGQQLARLHQWSDQPQFGLDFDNALSTTPQPNTWQRRWSTFFAEQRIGWQLELAAEKGITFGNIDAIVEHVQQRLASHQPQPSLLHGDLWSANCALGPDGPYIFDPACYWGDRECDLAMLPLHTDQPPQIYDGYQSVSPLPLDFLDRQPIYQLYTLLNRARLFGGQHLATAQKAMDRLLAVLEHHHHHH	failed
MIEQPSPKVYDELLSIWEEAVRSTHHFLTEADIQFYKPLIRHEYLAAVRLYIIREDSGTIAAFMGLSNDCIEMLFVRPNAHGHGYGSRLVEFAIRKKRIYKVDVNEQNAAALGFYLHMGFETTGRDALDATGKPFPILHLQIPPIRLRK	failed
MIETPSLVDQYCHGVLRTELGLGTFEAQLARTEGPPAPGTTLFDTQTGFAVRRWCPPLLGLEPHCPPARYLARRRELGVMEADRRLLRGSGITTYLVDAGLPGDLTGPTEMATAADADTREIVRLELLAEQVADTSGTVESFLANLAEAVHGAAVNAVAFTSVAGVRHGLALAPEPPGPGEVRGAAARWLTGREVGGELSDPVLLRHLLWIAVASGLPLQLHAGLGEPGLRIDRTDPVLLTDFVRTTAGLGTDLVLLHGYPYHRHAAHLAGVFPHVYADSGAALVRTGARAATVLAEILELAPFGKILFSSGAQGLPELHVVAARLFREALGRVLGTWVAEGAWSPGDAQRVAAMIASGNAARVYGLE	failed
MIFERIKSEGLAHLSYFVGSGNEAIVIDPRRDCQIYFDIARREGMKIKYIFETHRNEDYVIGSLELKELTDAEIYHGKGVDFKYGIFVSDGQEFNFGSMKLTALHTPGHTDESMSYALTYPESGKAPLMVFTGDALFVGDVGRTDLYGPEEIPRMAANLYESIFNKILPLGDGVILCPAHGAGSLCGGAISKREYSTLGLERIQNPALQRTDKEEFIKFKLEEKLEFPPYFKKMEQYNLQGPPLLKGLPVPELLFPKEFVKEMEKGAMVVDTRMPHSFGGAHIKGSYGIWLKGLPYYAGWVLPYDKPILLVLEEKDQLETAVSYLVRIGYDSIAGFLNGGISSWYMKALPVESLNLISVQSLKDKIEKNEEMVILDVRRDEEWEKGHIEGARHVYVGHLEENLDKVPRNSPIIVYCDSSRRSNIAASILKKKGYDMVYNVLGSMTAWKNAGYKVVKLEHHHHHH	not failed
MIFRTFIVVLCLIPCFSYGSEAYLNAAEKQFESLLELLPEDEKREWKHRDFEEVMDYSNKLDELKKTAEYIRNQSDSSDVDGILAFSFLADAIQYELDLKTSLVNDLGLHLYRSYEINNVNPVRKAIEAELVALQNASGALQLQSKLTKYFKLQREIAELSKNPPTKMTLEYRPQDNAWDSDPELVKKYVLFDWLSALSKLKEKLYELQKIKDSFASFNYLRLKDPIAFVSLGAQLAILLVAVAGYLISYTEKPSIKVVASLVAASMLLSVFLVFVSSSTIFNLIVQASIPSLFIAYWVYRNSHNKKVQPTADGRG	failed
MIFSPDAFTGSILAVEGIRDAAVILNGPTGCKLYHSFLSDRQFPRESSHDPLAFQDEFYFGQPRVPCTCLDGEDFIQGSLEKFERALAAVAAKEKGLLVVINSPGASLVGDDLENVIKNAGLQNRCFVVEKTGFSLPAAQGFENTTLTLLEHLKLRSLFRPHNRSEFPKKVNLIGLSLLHKHWEGSVAEMKRLLSFLGLEVGAILLAGTSLDEIRESNNAACNIVLFPEYGRRVAEWYRKHFGIPAVFSPLGAPLGFDANESLLREVAAILNIDPAPALAEVREARQTSYRQISRFHSFSGLPKGASFSIQAESSLVFPLTHWLYSYLGMAPYAVKLLPGSDPEMARSLKSFLTEKGFCEAWDRDLSLESVDIAFADSFTLQLLKAKGCCKAGIEISLPDRGYIHFIPKTYLGVSGALFLLEEIINGLRST	failed
MIFSSPSQKNHPVGGLEEVMAQGTFVQALRKEAALSSTFMKGRSLMLNGAVLSIEDSGSRFSKNVTLEGAVRGSRGDLYKTHVALDMDEHEVIDYDCDCPAAYRYPGMCKHAIATALAYLDASGIEPVEGLRTPVRTFTAAPKQAARPSSAAPAVNPNFPFPAPVPTSPSLMKALSDLSDARMDELAGMRRKLAGTVDPDAPKAVLEPSLVPYYNPLFADRFSWALELRIRCGSVSYVVKDIDGMAAAYVRGGTFSYGKKLTFLHAPEAFDEVSVRLLDLVVATVVYLSDITSSRSASYDFARSGFVAERQLPLSEHDIVYMLDLLRGRTISFEPAWSRGTTTHRSYEVAVELSPVGEDEASAKQPPLLAAKIAPAAGGSYDLRLPADTYCFVAGDAAYLVDTHRARRADAAFAQHAAPFLSRLLPCRTPVHIAAEQVGEFCRMALPVLREYTGLTAPAVLDTVAPEPSFAMAIGVDDGLVTCKITVSYGDWSADLFSLGAPGSPFEERRPGVPPRDEMAEFRVMDTAALYFDFYEGGLAFEERDDESLFHLLTEGLSALSELGEVMLSDRLRQVSVRPAPKLSVRATVKSNLLDVELGASGLSAADLAIYLDSYKRHQTFARLTSGDIIRLDEGARAAFGLAEDLGVDAVDLLDGVSLPASSTLFVDSMLARTPELEADRDAAFRRTVERLDTLGKMDFTVPVSLKATLRGYQVDGYQWLGSLEHLGLGGILADDMGLGKTLQMIAHILARVEAGDAKPTLVVCPASLVYNWTAELERFAPSLDVCAIVGAKAQRRVQIAGADEHNVVITSYDLMRRDIDEYAEQDFARVVLDEAQYIKNPLTQVAHAAKRLPAGVRFALTGTPIENRLSELWSIFDFLMPGLLGSRESFAKRFESPVEHAEGDSAARLQALVSPFVLRRVKEDVVADLPEKIEDTVMAQLTGEQRKLYLANQDRIAQQVQHREVSEFKKDKLKVLAELTKLRQICCDPHLHYEDYKAGSAKLDACMELVHGALDGGHHILLFSQFTGMLDIIGKRLAKEDIGFLKLTGASSKESRAKMVAQFQAGEVPVFLISLKAGGVGLNLTAADVVIHYDPWWNVAAQDQATDRAHRIGQQHTVTVYKLIAKDTIEERIMRMQESKRDLVNSVLGGDGISSALFTREDVLALLGGDGR	failed
MIFYFSGTGNSAWVARQLAEGQNEELLSIAMEIDRNKAYKLKEGEKVGFVFPVYAWGPPKIVLRFIHQLKLDKPGYLFFVCTCGDDTGRTAQIFSSAVTRKGWQCVAGYSVTMPNTYVSLPGFDVDDKDIETQKVQNAVARVRFINEEITSRAQMKQYNCHEGALPFTKSYLLRPLFNAFLMSPKPFHTTEACIGCKKCEKVCPVGNITVTDRPVWGGNCTQCLACYHVCPVHAVEYGKMTGKKGQYKGRLLKDL	failed
MIGDLDISGVFLPTLLVLMGITYGLYLLVHGVLTRLHFYRLVWHRALFNVGLYALLLGAVDSLSRYLMT	failed
MIGDMNELLLKSVEVLPPLPDTVSKLRKYVSEANSNIETMKVAEIISSDPLMTAKLLQLANSPYYGFTREITTINQVITLLGVGNIINIVMADSIRDNFKIDVSPYGLNTQNFLKTCNEEATFIANWLNDEDKKLSHLLVPCAMLLRLGIVIFSNFLIQNHKDKDFLAFLNKNENLALAENEFLGVDHISFLGFLLHRWNFDDVLIESICFVRTPHAAREKVKKSAYALAITDHLFAPHDGSSPFNAKAAVALLKEAKTQGINFDLNNLLSKLPNKAKENLNKED	not failed
MIGFLILLFIFVAGFFIMQMLIYRFAKKNIHKYTKIKWFHMWLHMNMKKGPRLDFFDFVVTVLVCIVWKIWLLPFI	failed
MIGHNSPTRTAPLISVTTLDKVALSRLGRDVAVRNRKSRAVLAYLALSPHGFETRERICGLLWSESDEARARASLRQTVVDLKACLAEIEGVFSGDRLNVTLKPSLVTVDVGEIRHELKAGRIPPILLERQRVAESFLNGLDDIDPSFRNWVLVQRQCLQDEFISCLEAMAKAAADWPALKRAGQALLNLDPTNEIGCRAVMEASARMGDQATALRAYKGLWDLLETEFDSEPSAATQALVSDIKLGTIGATDRGAVTAIAAEAFGSQAQRLQEPAAGVLLFVREFELVSGSVRARNAVQIFRSELVASLVRFRDWAVMEWEGHPPRFTENAYCIEATGFIDGPTLRLSMTLKQLASGRYIWSEQFVIENSQWYQTQQRLIRRIAVALGVSMSSERLVQIASIPDLSLEQFDRWLRAQELIFQWRPESEERAEALFRSIIAESPRFAAAYAGLAGIINSRHLIFPGIGRRRERHAEALTFAKQATQIDPIDSRSQLHLAWSYAMNGIPQQAAISFLLACELNGNDPWTLVSASLGLAYCDDRENARRIATLALQTGLGVSRLQWSYQAGVRFLLGDYAGCVEAAERAADSVSYIGGWKAAALALLGNEKAAHEEADRFLAQLKTTWFGNESPEPGNVGTWLMDSFPIYSPEAVEALRRGLAGAGIVVSHMPLPEPVLSAAPDGVVRDA	failed
